Source: patent US20200330588A1 (ICAHN SCHOOL OF MEDICINE AT MOUNT SINAI, published 2020)

B1: monoclonal antibody 10C10 (antibody, V domains shown)
VH: EVQLQQSGPELVKPGVSMRISCKASGFSFTDYTMNWVKQSHRKNLEWIGLVNPYNGGTSHNPNFKGKATLTVDKSSSTAYMELLSLTSEDSAVYYCARRGRRDYALDYWGQGTSVTVSS
VL: DIVLTQSPVTLSVTPGDSVSLSCRASQSVSNNLHWYQQKSHESPRLLIKYASQSISGIPSRFRGSGSGTDFTLSIISVETEDFGMYFCQQSNIWPHTFGAGTKLELKR
notes: also called mAb 10C10; 10C10^647 (Alexa Fluor 647 conjugate)
B2: monoclonal antibody 5C3 (antibody, V domains shown)
VH: QVQLQQPGAELVRPGASVKLSCKASGYTFTTYWMNWVKQRPGQGLEWIGMIDPSDSETHYNQMFKDKATLTVDTSSSTAYMQLSSLTSEDSAVYYCARGRSWFVYWGQGTLVTVSS
VL: DIVLTQSPASLAVSLGQRATISCRASKSVSSSGYSYVHWYQQKPGQPPKLLIYLASNLESGVPARFSGSGSGTDFTLNIHSVEEEDAATYYCQHNRELPYTFGGGTKLEIKR
notes: also called mAb 5C3; 5C3^647 (Alexa Fluor 647 conjugate)

How the values were obtained:
[1] = biological target: T1, HCMV glycoprotein gH, strain TB40/E (U373^gH cells, TB40/E-infected cells, virions) (Human cytomegalovirus strain TB40/E); assay: cell-based or functional assay
[2] = biological target: HCMV glycoprotein gH, strain DAVIS (virions) (Human cytomegalovirus strain DAVIS); assay: cell-based or functional assay
[3] = biological target: HCMV glycoprotein gH, strain VHL/E (virions) (Human cytomegalovirus strain VHL/E); assay: cell-based or functional assay
[4] = biological target: HCMV glycoprotein gH, strain TR (virions) (Human cytomegalovirus strain TR); assay: cell-based or functional assay
[5] = biological target: HCMV glycoprotein gH, strain AD169 (AD169IE2-YFP-infected MRC5 cells and virions) (Human cytomegalovirus strain AD169, UniProt P12824 24-743); assay: cell-based or functional assay
[6] = biological target: T1, HCMV glycoprotein gH, strain TB40/E …; assay: cell-based or functional assay; remark: listed apart in the source
[7] = biological target: T2, gH alanine mutant 488-489 transfected into HEK293 cells with gL (Human cytomegalovirus (consensus …)); assay: flow cytometry, HEK293 cells transfected with gH alanine mutant and gL; % of gH-positive cells compared to WT
T2 construct: whole, on cells

[8] = biological target: T3, gH alanine mutant 484-485 transfected into HEK293 cells with gL (Human cytomegalovirus (consensus …)); assay: as above
T3 construct: whole, on cells

[9] = biological target: gH alanine mutant 478-488 (label as in Table 6); assay: as above
[10] = biological target: T4, gH alanine mutant 486-487 transfected into HEK293 cells with gL (Human cytomegalovirus (consensus …)); assay: as above
T4 construct: whole, on cells

[11] = biological target: T5, gH mutant 480-486 (consecutive alanine substitutions) transfected into HEK293 cells with gL (Human cytomegalovirus (consensus …)); assay: as above
T5 construct: whole, on cells; also called 480-486 mutant; gH mutant 480-86

[12] = biological target: T6, gH alanine mutant 482-483 transfected into HEK293 cells with gL (Human cytomegalovirus (consensus …)); assay: as above
T6 construct: whole, on cells

[13] = biological target: T7, gH alanine mutant 490-491 transfected into HEK293 cells with gL (Human cytomegalovirus (consensus …)); assay: as above
T7 construct: whole, on cells

[14] = biological target: T8, gH mutant 485-492 (consecutive alanine substitutions) transfected into HEK293 cells with gL (Human cytomegalovirus (consensus …)); assay: as above
T8 construct: whole, on cells; also called 485-492 mutant; gH mutant 485-92

[15] = biological target: T9, gH alanine mutant 480-481 transfected into HEK293 cells with gL (Human cytomegalovirus (consensus …)); assay: as above
T9 construct: whole, on cells

[16] = biological target: T10, cyclic gH peptides (7, 10 and 13 aa libraries) spanning gH residues 485-493 (Human cytomegalovirus, cyclized with a thioether linkage between the N' and C' termini); assay: cyclic peptide microarray (PEPperCHIP), anti-mouse DyLight680 detection
T10 construct: also called region spanning residues 485-493

Row | Binder | IC50, neutralization of TB40/E FLAG-YFP infection of ARPE-19 epithelial cells (YFP read-out) [1] [µg/mL] | IC50, strain Davis, fibroblasts, plaque assay [2] [µg/mL] | IC50, strain VHL/E, epithelial cells, α-IE staining [3] [µg/mL] | IC50, strain VHL/E, fibroblasts, plaque assay [3] [µg/mL] | IC50, strain VHL/E, fibroblasts, α-IE staining [3] [µg/mL] | IC50, strain TR, epithelial cells, α-IE staining [4] [µg/mL] | IC50, strain TR, fibroblasts, plaque assay [4] [µg/mL] | IC50, strain TR, fibroblasts, α-IE staining [4] [µg/mL] | IC50, neutralization of AD169IE2-YFP infection of fibroblasts (IE2-YFP read-out) [5] [µg/mL] | IC50, neutralization of TB40/E FLAG-YFP infection of fibroblasts (FLAG-YFP read-out) [6] [µg/mL] | IC50, strain TB40/E, epithelial cells, α-IE staining [6] [µg/mL] | IC50, strain TB40/E, fibroblasts, plaque assay [6] [µg/mL] | IC50, strain TB40/E, fibroblasts, α-IE staining [6] [µg/mL] | Avg. binding (% of mass) [7] [%] | Avg. binding (% of mass) [8] [%] | Avg. binding (% of mass) [9] [%] | Avg. binding (% of mass) [10] [%] | Avg. binding (% of mass) [11] [%] | Avg. binding (% of mass) [12] [%] | Avg. binding (% of mass) [13] [%] | also measured
1 | B1 | 0.13 | 0.37 | 0.11 | 0.24 | 0.24 | 0.44 | 2.43 | 2.34 | 0.5 | 0.38 | 1.35 | 1.28 | 4.18 | 98 | 3 | 100 | 2 | 3 | 91 | 72 | Avg. binding (% of mass) [14]: 2%; Avg. binding (% of mass) [15]: 70%
2 | B2 | 0.04 | 0.22 | 0.11 | 0.02 | 0.02 | 0.16 | 2.13 | 0.63 | 0.24 | 0.07 | 0.96 | 0.45 | 0.88 | 113 | 76 | 100 | 56 | 14 | 85 | 92 | fold over background [16]: ~3 fold; Avg. binding (% of mass) [14]: 49%; Avg. binding (% of mass) [15]: 72%
